In patent US20250026856A1 (UCB, published 2025):

T1: human transglutaminase type 2 (TG2) (human, UniProt P21980 2-687)
T1 sequence: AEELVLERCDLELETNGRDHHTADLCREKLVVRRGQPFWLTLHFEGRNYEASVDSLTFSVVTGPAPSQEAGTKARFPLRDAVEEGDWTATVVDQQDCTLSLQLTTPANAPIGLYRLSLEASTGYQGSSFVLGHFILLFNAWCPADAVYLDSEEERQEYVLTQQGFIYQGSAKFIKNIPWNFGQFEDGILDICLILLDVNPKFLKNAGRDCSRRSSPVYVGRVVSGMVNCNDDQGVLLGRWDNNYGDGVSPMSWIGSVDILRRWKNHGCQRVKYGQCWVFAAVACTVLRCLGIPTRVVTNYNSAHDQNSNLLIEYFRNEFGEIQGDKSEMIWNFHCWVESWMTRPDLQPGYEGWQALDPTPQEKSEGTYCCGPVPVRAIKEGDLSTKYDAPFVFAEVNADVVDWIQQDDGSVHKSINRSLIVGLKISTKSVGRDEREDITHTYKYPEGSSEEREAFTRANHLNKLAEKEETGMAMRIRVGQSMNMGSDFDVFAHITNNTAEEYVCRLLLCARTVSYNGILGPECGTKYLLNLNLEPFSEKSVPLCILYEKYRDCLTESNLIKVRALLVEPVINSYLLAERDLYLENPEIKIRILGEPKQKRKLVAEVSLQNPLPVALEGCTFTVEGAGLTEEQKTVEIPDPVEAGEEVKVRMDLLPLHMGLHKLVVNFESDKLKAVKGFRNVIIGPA

B1: Zampilimab (antibody, V domains shown)
VH: EVQLLESGGGLVQPGGSLRLSCAASGFTLSTHAMSWVRQAPGKGLEWVATISSGGRSTYYPDSVKGRFTISRDNSKNTLYLQMNSLRAEDTAVYFCARLISTYWGQGTLVTVSS
VL: DITMTQSPSSLSASVGDRVTITCKASQDINSYLTWFQQKPGKAPKILIYLVNRLVDGVPSRFSGSGSGQDYALTISSLQPEDFATYYCLQYDDFPYTFGQGTKVEIK
B2: rbBB7 (antibody, V domains shown)
VH: EVQLLESGGRLVTPGGSLTLTCAASGIIFSSSAMSWVRQAPGKGLEWVATISSGGRSTYYPDSVKGRFTVSRDSSKNTLYLQMNSLRAEDTAVYYCAKLISPYWGQGTLVTVSS
VL: AIKMTQTPSSVSAAVGGTVTISCKASQDINSYLTWFQQKPGQPPKTLIYLTNRLMDGVPSRFSGSGSGQEFLLTISGLECDDAATYYCLQYVDFPYTFGGGTKVVVK

Key:
[1] = target: T1, human transglutaminase type 2 (TG2); assay: cell-based or functional assay
[2] = target: rabbit TG2 (rabbit); assay: cell-based or functional assay

IC50 against human TG2 [1] [nM] | IC50 against rabbit TG2 [2] [nM] | Binder
0.25 | 103 | B1
0.3 | 8 | B2
